Experimental data from IntAct's records for PubMed 19098916.

target: brr2_yeast BRR2 (UniProt P32639)
Sequence (P32639 whole entry): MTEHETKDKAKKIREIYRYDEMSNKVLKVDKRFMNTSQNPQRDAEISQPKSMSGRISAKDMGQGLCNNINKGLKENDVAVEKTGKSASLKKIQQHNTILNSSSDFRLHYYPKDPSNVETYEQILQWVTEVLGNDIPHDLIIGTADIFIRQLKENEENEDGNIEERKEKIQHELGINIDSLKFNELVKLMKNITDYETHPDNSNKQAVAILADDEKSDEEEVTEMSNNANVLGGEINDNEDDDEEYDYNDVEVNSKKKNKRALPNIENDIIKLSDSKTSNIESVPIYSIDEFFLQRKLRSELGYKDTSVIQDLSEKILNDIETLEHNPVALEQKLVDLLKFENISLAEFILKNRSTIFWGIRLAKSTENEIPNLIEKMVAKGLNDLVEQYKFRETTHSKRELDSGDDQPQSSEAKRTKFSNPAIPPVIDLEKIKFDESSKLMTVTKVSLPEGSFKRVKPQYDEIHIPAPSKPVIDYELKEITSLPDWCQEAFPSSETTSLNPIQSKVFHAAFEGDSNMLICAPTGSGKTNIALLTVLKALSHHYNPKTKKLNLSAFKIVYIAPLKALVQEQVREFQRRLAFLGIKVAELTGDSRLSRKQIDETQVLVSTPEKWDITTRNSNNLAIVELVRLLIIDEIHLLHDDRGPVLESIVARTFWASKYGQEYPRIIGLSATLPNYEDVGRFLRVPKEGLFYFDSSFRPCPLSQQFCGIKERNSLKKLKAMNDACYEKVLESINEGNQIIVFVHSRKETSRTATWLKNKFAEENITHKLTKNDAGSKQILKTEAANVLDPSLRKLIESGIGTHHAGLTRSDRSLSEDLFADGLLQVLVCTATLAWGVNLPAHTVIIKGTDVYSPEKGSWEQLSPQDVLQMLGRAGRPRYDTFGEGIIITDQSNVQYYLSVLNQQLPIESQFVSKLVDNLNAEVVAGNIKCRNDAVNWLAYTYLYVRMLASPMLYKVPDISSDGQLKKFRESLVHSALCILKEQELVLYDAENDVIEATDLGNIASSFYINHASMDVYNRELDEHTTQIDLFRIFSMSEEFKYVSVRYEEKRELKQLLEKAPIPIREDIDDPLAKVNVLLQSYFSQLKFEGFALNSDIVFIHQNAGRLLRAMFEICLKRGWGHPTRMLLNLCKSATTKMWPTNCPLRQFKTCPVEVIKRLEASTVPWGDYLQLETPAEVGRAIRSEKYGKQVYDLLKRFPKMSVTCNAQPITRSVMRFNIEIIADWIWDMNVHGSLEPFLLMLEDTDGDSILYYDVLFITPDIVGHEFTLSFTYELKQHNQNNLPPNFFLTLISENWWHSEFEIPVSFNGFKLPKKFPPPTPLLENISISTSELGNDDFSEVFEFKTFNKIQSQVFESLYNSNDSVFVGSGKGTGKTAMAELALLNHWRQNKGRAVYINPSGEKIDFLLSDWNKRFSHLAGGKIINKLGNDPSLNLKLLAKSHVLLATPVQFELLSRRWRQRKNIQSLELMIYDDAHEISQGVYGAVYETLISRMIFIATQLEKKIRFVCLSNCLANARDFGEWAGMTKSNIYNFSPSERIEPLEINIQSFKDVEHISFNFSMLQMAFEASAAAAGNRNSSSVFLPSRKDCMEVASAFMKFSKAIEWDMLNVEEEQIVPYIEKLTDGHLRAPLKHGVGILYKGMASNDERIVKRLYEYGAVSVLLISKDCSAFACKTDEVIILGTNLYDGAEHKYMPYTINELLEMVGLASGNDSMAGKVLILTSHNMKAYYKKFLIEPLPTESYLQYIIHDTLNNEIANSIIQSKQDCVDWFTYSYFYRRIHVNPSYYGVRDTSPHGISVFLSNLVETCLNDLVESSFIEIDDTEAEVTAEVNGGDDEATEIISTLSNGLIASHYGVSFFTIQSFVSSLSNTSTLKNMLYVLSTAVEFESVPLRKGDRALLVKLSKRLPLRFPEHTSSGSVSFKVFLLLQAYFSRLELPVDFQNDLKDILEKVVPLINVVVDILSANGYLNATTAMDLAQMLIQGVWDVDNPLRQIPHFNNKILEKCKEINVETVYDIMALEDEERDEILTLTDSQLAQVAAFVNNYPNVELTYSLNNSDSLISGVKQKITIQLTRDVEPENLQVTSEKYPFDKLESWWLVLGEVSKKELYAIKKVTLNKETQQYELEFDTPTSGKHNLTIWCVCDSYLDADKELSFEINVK

Chain of Pre-mRNA-splicing factor 8 (Saccharomyces cerevisiae), P33334 R2388K (P33334 whole entry R2388K): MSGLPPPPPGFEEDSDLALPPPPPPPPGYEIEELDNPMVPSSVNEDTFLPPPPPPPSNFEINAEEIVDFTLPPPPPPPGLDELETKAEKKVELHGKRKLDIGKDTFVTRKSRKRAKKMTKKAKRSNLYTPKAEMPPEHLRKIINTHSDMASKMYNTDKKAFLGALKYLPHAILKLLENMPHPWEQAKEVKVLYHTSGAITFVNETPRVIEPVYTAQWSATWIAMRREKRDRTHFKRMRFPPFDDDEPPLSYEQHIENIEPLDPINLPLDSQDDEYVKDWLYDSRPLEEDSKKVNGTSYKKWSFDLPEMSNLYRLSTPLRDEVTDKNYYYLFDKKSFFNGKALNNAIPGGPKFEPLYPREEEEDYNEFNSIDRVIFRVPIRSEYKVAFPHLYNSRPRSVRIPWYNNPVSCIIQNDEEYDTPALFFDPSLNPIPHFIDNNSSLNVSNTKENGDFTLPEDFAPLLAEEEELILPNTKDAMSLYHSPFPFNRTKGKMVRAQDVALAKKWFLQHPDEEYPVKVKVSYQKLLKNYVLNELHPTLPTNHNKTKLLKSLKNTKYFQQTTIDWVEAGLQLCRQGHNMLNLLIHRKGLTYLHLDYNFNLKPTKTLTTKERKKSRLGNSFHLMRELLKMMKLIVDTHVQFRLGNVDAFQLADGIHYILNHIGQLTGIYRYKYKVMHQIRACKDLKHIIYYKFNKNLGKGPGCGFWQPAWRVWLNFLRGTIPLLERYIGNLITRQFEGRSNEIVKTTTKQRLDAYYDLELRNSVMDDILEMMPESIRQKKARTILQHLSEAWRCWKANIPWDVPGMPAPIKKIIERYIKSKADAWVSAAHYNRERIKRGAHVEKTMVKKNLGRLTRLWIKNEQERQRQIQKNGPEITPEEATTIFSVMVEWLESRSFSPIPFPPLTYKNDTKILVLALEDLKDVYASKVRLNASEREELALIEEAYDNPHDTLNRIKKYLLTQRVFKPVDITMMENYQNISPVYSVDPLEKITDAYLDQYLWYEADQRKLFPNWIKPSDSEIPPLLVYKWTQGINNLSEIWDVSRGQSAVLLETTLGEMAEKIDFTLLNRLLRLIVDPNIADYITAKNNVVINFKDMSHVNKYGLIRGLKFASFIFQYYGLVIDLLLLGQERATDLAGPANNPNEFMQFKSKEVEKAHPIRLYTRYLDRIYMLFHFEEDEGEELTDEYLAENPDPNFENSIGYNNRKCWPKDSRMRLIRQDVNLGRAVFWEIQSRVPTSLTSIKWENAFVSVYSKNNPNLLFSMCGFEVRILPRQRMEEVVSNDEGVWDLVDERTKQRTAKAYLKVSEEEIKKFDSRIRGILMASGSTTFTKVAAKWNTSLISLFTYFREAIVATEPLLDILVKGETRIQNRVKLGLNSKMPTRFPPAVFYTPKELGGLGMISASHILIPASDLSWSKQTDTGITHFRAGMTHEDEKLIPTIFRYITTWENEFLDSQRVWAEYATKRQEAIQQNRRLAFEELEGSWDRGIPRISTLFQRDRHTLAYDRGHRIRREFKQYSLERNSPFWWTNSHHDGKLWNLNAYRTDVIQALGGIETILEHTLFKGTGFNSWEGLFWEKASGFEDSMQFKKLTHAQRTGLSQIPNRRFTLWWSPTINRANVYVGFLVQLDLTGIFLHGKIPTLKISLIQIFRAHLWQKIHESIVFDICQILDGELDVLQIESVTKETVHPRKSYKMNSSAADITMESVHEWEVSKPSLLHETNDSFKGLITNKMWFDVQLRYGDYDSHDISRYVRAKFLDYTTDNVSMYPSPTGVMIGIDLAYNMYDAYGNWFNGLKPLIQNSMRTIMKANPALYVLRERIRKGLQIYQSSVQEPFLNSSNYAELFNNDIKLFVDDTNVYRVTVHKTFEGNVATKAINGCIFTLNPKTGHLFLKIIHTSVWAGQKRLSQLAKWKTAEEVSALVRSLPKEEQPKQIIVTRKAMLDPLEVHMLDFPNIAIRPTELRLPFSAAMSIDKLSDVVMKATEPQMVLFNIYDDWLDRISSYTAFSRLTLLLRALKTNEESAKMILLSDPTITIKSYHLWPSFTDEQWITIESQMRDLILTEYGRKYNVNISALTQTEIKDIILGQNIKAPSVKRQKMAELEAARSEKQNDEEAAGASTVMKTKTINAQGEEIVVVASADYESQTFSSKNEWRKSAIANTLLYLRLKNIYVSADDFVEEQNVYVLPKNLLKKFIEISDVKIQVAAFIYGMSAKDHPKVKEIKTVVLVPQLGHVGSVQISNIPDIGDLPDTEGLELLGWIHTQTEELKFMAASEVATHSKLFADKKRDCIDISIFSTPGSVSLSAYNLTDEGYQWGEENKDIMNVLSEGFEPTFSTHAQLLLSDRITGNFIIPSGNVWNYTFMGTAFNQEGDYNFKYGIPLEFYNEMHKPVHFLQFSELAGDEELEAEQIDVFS

Effect of a mutation on the interaction, disrupting interaction strength:
Pre-mRNA-splicing factor 8 (Saccharomyces cerevisiae), P33334 H2387P
Pre-mRNA-splicing factor 8 (Saccharomyces cerevisiae), P33334 H2387R
Pre-mRNA-splicing factor 8 (Saccharomyces cerevisiae), P33334 R2388G
Pre-mRNA-splicing factor 8 (Saccharomyces cerevisiae), P33334 R2388K
